Reference: the Immune Epitope Database (IEDB)

Assays:
HLA-B*57:01 [1] = assay: IEDB peptide-MHC binding, purified MHC/competitive/radioactivity; filed as Kd, often an IC50 or EC50 that approximates it; ≥ and ≤ were set here for values at or beyond the usual limits of such assays
HLA-B*58:01 [2] = assay: as above
HLA-B*15:03 = assay: as above
HLA-A*32:01 = assay: as above; settings: source organism: Vaccinia virus WR
HLA-B*15:01 [3] = assay: as above; settings: source organism: Vaccinia virus WR
HLA-A*30:01 = assay: as above; settings: source organism: Vaccinia virus WR
HLA-B*08:01 = assay: as above; settings: source organism: Vaccinia virus WR
HLA-B*57:01 [4] = assay: IEDB peptide-MHC binding, purified MHC/competitive/fluorescence; filed as Kd, often an IC50 or EC50 that approximates it; ≥ and ≤ were set here for values at or beyond the usual limits of such assays
HLA-B*39:01 = assay: as above
HLA-A*69:01 = assay: as above
HLA-B*15:17 [5] = assay: as above
HLA-A*26:01 = assay: as above
HLA-A*03:01 [6] = assay: as above; settings: source organism: Four Corners hantavirus
HLA-B*51:01 = assay: as above
HLA-B*27:03 = assay: as above
HLA-B*46:01 = assay: as above
HLA-A*02:01 = assay: as above
HLA-A*68:02 = assay: IEDB peptide-MHC binding, purified MHC/direct/fluorescence; filed as Kd, often an IC50 or EC50 that approximates it; ≥ and ≤ were set here for values at or beyond the usual limits of such assays
HLA-A*02:16 = assay: as above
HLA-A*02:11 = assay: as above
HLA-A*24:03 = assay: as above
HLA-A*02:19 = assay: as above
HLA-A*02:12 = assay: as above
HLA-A*02:03 = assay: as above
HLA-B*57:01 [7] = assay: as above
HLA-B*58:01 [8] = assay: as above
HLA-B*15:17 [9] = assay: as above
HLA-B*53:01 = assay: IEDB peptide-MHC binding, purified MHC/competitive/radioactivity; filed as Kd, often an IC50 or EC50 that approximates it; ≥ and ≤ were set here for values at or beyond the usual limits of such assays
HLA-B*35:01 = assay: as above; settings: source organism: Dengue virus 1 Singapore/S275/1990
HLA-B*15:01 [10] = assay: IEDB peptide-MHC binding, purified MHC/competitive/fluorescence; filed as Kd, often an IC50 or EC50 that approximates it; ≥ and ≤ were set here for values at or beyond the usual limits of such assays; settings: source organism: Reston ebolavirus
HLA-B*18:01 = assay: as above; settings: source organism: Reston ebolavirus
HLA-A*03:01 [11] = assay: IEDB peptide-MHC binding, purified MHC/direct/fluorescence; filed as Kd, often an IC50 or EC50 that approximates it; ≥ and ≤ were set here for values at or beyond the usual limits of such assays; settings: source organism: Reston ebolavirus
[12] = source organism: Dengue virus 4 Philippines/H241/1956
[13] = source organism: Vaccinia virus WR
[14] = source organism: Four Corners hantavirus
[15] = source organism: Limestone Canyon virus
[16] = source organism: Escherichia coli O157:H7
[17] = source organism: Dengue virus 1 Brazil/97-11/1997
[18] = source organism: Dengue virus 1 Singapore/S275/1990
[19] = source organism: Reston ebolavirus
[20] = source organism: Listeria monocytogenes FSL N3-165

ILIGFLVLW showed a Kd (HLA-B*57:01 [1]; [12]) of 1250 nM and a Kd (HLA-B*58:01 [2]; [12]) of 403 nM.
IQRTYSSSI was tested, and the Kd (HLA-B*15:03; [13]) was 0.83 nM.
IQTLNGKHF gave a Kd (HLA-B*15:03; [13]) of 11.4 nM.
ITLTNVVNI showed a Kd (HLA-A*32:01) of 77.1 nM, a Kd (HLA-B*15:01 [3]) of 11.6 nM and a Kd (HLA-B*15:03; [13]) of 21.8 nM. For the same sequence, the Kd (HLA-A*30:01) was 34.6 nM and the Kd (HLA-B*08:01) was 4490 nM.
KLKKKSAFY showed a Kd (HLA-B*57:01 [4]; [14]) of no less than 20000 nM, a Kd (HLA-B*39:01; [14]) of no less than 20000 nM and a Kd (HLA-A*69:01; [14]) of no less than 20000 nM. For the same sequence, the Kd (HLA-B*15:17 [5]; [14]) was no less than 20000 nM, the Kd (HLA-A*26:01; [14]) was no less than 20000 nM and the Kd (HLA-A*03:01 [6]) was 45.1 nM. The Kd (HLA-B*51:01; [14]) was no less than 20000 nM, the Kd (HLA-B*27:03; [14]) was no less than 20000 nM and the Kd (HLA-B*46:01; [14]) was no less than 20000 nM. It also gave a Kd (HLA-A*02:01; [14]) of no less than 20000 nM, a Kd (HLA-A*68:02; [15]) of no less than 20000 nM and a Kd (HLA-A*02:16; [15]) of no less than 20000 nM. The Kd (HLA-A*02:11; [15]) was no less than 20000 nM, the Kd (HLA-A*24:03; [15]) was no less than 20000 nM and the Kd (HLA-A*02:19; [15]) was no less than 20000 nM. The Kd (HLA-A*02:12; [15]) was no less than 20000 nM and the Kd (HLA-A*02:03; [15]) was no less than 20000 nM.
Work on KLTSTETSF yielded a Kd (HLA-B*15:03; [13]) of 25.4 nM.
For KSWPAAIDW, the Kd (HLA-B*57:01 [7]; [16]) was 32 nM, the Kd (HLA-B*58:01 [8]; [16]) was 1.5 nM and the Kd (HLA-B*15:17 [9]; [16]) was 1.3 nM.
Work on LLIMGQLTW yielded a Kd (HLA-B*58:01 [2]; [17]) of 11.1 nM and a Kd (HLA-B*53:01; [17]) of 342 nM.
In the case of LPTNEFISF, the Kd (HLA-B*15:03; [13]) is reported as 33.7 nM.
For LSSRAKLALD, the Kd (HLA-B*57:01 [1]; [12]) was 7420 nM and the Kd (HLA-B*58:01 [2]; [12]) was 362 nM.
LTSREVLLLT gave a Kd (HLA-B*57:01 [1]; [17]) of 712 nM and a Kd (HLA-B*58:01 [2]; [17]) of 409 nM.
MASSVLLWM showed a Kd (HLA-B*35:01) of 56.6 nM, a Kd (HLA-B*58:01 [2]; [18]) of 0.3 nM and a Kd (HLA-B*53:01; [18]) of 0.61 nM.
PASAWTLYAV gave a Kd (HLA-B*57:01 [1]; source organism: Dengue virus 2 Jamaica/1409/1983) of 1110 nM.
PTSYLDVDLH was tested, and the Kd (HLA-B*57:01 [1]; source organism: Dengue virus 3 Martinique/1243/1999) was no less than 37400 nM.
With RQNRSQYLF the Kd (HLA-B*15:03; source organism: Vaccinia virus Copenhagen) was 0.137 nM.
In the case of SMNTIKQSF, the Kd (HLA-A*32:01) is reported as 293 nM, the Kd (HLA-B*15:03; [13]) is reported as 16.5 nM and the Kd (HLA-B*08:01) is reported as 449 nM.
Work on WFQRIPLQW yielded a Kd (HLA-B*57:01 [4]; [19]) of no less than 20000 nM, a Kd (HLA-B*39:01; [19]) of no less than 20000 nM and a Kd (HLA-A*69:01; [19]) of no less than 20000 nM. For the same sequence, the Kd (HLA-B*15:17 [5]; [19]) was no less than 20000 nM, the Kd (HLA-A*26:01; [19]) was no less than 20000 nM and the Kd (HLA-B*51:01; [19]) was no less than 20000 nM. It also gave a Kd (HLA-B*15:01 [10]) of no less than 20000 nM, a Kd (HLA-B*27:03; [19]) of no less than 20000 nM and a Kd (HLA-B*46:01; [19]) of no less than 20000 nM. The Kd (HLA-B*18:01) was no less than 20000 nM, the Kd (HLA-A*02:01; [19]) was no less than 20000 nM and the Kd (HLA-A*68:02; [19]) was no less than 20000 nM. For the same sequence, the Kd (HLA-A*02:16; [19]) was no less than 20000 nM, the Kd (HLA-A*02:11; [19]) was no less than 20000 nM and the Kd (HLA-A*24:03; source organism: Tai Forest virus - Cote d'Ivoire, Cote d'Ivoire, 1994) was 0.3 nM. The Kd (HLA-A*02:19; [19]) was no less than 20000 nM, the Kd (HLA-A*03:01 [11]) was no less than 20000 nM and the Kd (HLA-A*02:12; [19]) was no less than 20000 nM. It also gave a Kd (HLA-A*02:03; [19]) of no less than 20000 nM.
WTRPRYIEI showed a Kd (HLA-B*57:01 [7]; [20]) of no less than 20000 nM, a Kd (HLA-B*58:01 [8]; [20]) of 429 nM and a Kd (HLA-B*15:17 [9]; source organism: Listeria monocytogenes) of 270 nM.
